Earlier results on one substance are cited in PMC9826382.

The series has as its target HOP TPR2A (Homo sapiens) (UniProt P31948). Description: SPR.
UniProt P31948, sequence (P31948 223-352): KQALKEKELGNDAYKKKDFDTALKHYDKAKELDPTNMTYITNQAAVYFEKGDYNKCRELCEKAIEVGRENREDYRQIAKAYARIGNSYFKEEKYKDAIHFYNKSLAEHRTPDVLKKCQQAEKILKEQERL

For HSP90 C-terminal peptide, the Kd was 11 µM.
